{"source": "the DeepSol protein solubility set"}
{"assay": "soluble on expression in E. coli; label from the status in PepcDB or PDB records"}
{"sequence": "MGSDKIHHHHHHYYYARGTYTHYNLDFDQDVTHLLDLGMKQISLEPVVAQPSDPYAFQEGDLPEILKTYDRLGEELLARRRKGEDFSFFHFNVALDQGPCLPKRLSGCGAGHEYVAISPEGDLYPCHQFVGQEEFKMGSLGQEGVPLNPEIIAKFRSAHVYSKAACRQCWARFSCSGGCHSANHAFSGQLNEVYALGCEFQKKRLEVALYMKIKEA", "soluble on expression in E. coli": "not soluble"}
{"sequence": "MGHHHHHHSHMEYSYIPSFALYNNADMFQFFPRNKRLSTHQKSCLDEHARKMAVFMMKRQEEYRYYENLANQEQFSDDAHFSDNGMDSGFCSGATSTGQSASTSPAPVQLIPNPFFDPEAKTQSPVKLVDNPELFMESKKKSARISA", "soluble on expression in E. coli": "not soluble"}
{"sequence": "MKCSWREGNKIQLLENGEQYYPAVFKAIGEAQERIILETFIWFEDNVGKQLHAALLAAAQRGVKAEVLLDGYGSPDLSDEFVNELTAAGVVFRYYDPRPRLFGMRTNVFRRMHRKIVVIDARIAFIGGLNYSAEHMSSYGPEAKQDYAVRLEGPIVEDILQFELENLPGQSAARRWWRRHHKAEENRQPGEAQVLLVWRDNEEHRDDIERHYLKMLTQAQREVIIANAYFFPGYRFLHALRKAARRGVRIKLIIQGEPDMPIVRVGARLLYNYLVKGGVQVFEYRRRPLHGKVALMDDHWATVGSSNLDPLSLSLNLEANVIIHDRHFNQTLRDNLNGIIAADCQQVDETMLPKRTWWNLTKSVLAFHFLRHFPALVGWLPAHTPRLTQVDPPAQPTMETQDRVETENTGVNP", "soluble on expression in E. coli": "not soluble"}
{"sequence": "MGSDKIHHHHHHMNFKEALEGIKLVLESKAVPLLVGESGIGKTSLVKKLSKDEEYYYINIDGNLLKEGEIGGLPVVQDYGDEKSLIKKTVYAAYYKFIKIDEILKNNPNQKVLLFIDEINRCEHSVQQEIMNIILNREINGYKLKDNITVIAAMNPSSKYDEFEESDYQVNDMDPAQEDRFVWIYLESDVNNWIEWGHERINGESRIHEDILGFIASFPEYLSTPNSKESIKATPRSWERVSNIYKAYIKKKTKVSRNIFYNLIRGNVGTSIAQDFINYIDESKSPLLTPEDIFANDCISEDIKDRIRKESHSRLFLSAKNILFYLENKEDRSREVEIFSEFLSLYPNDLKLGIMQNIKSDSSKKLYKEFLENTSFLENFFLMYEGIED", "soluble on expression in E. coli": "not soluble"}
{"sequence": "MGSDKIHHHHHHMASHNTTHQMKTLCSSCSLRELCLPVGLLPNELSQLDAVIRQSRRLKKGEYLFCVGEAFTSLFAIRSGFFKTTVASQDGRDQVTGFFMSGELIGMDGICSHVHSCDAVALEDSEVCELPFTHIEELGQNIPSLRTHFFRMMSREIVRDQGVMLLLGNMRAEERIAAFLLNLSQRLYSRGFAANDFILRMSREEIGSYLGLKLETVSRTLSKFHQEGLISVEHKHIKILNLQVLKKMVSGCSHAI", "soluble on expression in E. coli": "not soluble"}
{"sequence": "PSARDILQQGLDRLGSPEDLASRIDSTLLSPRATEEDVRNLVREASDYGFRCAVLTPVYTVKISGLAEKLGVKLCSVIGFPLGQAPLEVKLVEAQTVLEAGATELDVVPHLSLGPEAVYREVSGIVKLAKSYGAVVKVILEAPLWDDKTLSLLVDSSRRAGADIVKTSTGVYTKGGDPVTVFRLASLAKPLGMGVKASGGIRSGIDAVLAVGAGADIIGTSSAVKVLESFKSLV", "soluble on expression in E. coli": "soluble"}
{"sequence": "AHHHHHHGSRTNAFEAVARYVYPSLRRRLVEILRERGLTQIQIAELLHITQSAVSRYLRMNRGALIEVEKFQDIDEKLKGLADTIVREKPDEYYIHGELVKIAVEMLGKGYVCSFHSKVDPEIDPKLCRICIETFG", "soluble on expression in E. coli": "not soluble"}
{"sequence": "MHLLRTQPGGFVPDDGIAHLAQTPAELVILCSGDSHLALLAEAARALPDDYPSLRLANPMQLQNHASVDLYVEEVLRHARVILLSLHGGIGYWRYGVEQLVALAERGALLIPVPGDDRPDPELSALGNLPAEQAERFWQYLRQGGLENAGQFYRCLASQCLGRDYAWREPQALPRVALFHPRHAEATLEHWRADWQAGRPVVALLFYRTHLQAANTAFIARFCERLAAQGLNPLPIALASLKESACLAQVEDWLERSDAALIVNTTGFAQSNPEAPELRPFRRDVPVLQAICSLDNRPLWLDNPQGLGPRDLAMHVALPELDGRIVTRPISFKGLAWRSERSESDVVCYLADDERMDFVAELARRWAELARKPNAEKRVALVLANYPTRDGRIGNGVGLDTPAAALNILRALRQQGYPVDGLPASGTELIRQLLGGVSNDLEHLDLRPCAQSLALDDYLACFARLPERNRQAVLARWGEPQQDPMFRDGRMMVAGLRYGLTFVGIQPARGYQLDPAAVYHDPDLVPPHGYLAFYFWLRHAYRADALLHVGKHGNLEWLPGKGVGLSAECWPDALLGPLPNIYPFIVNDPGEGAQAKRRTQAVIIDHLMPPLTRAESYGPLRDLERLADEFYDASLLDPRRAEQLRGEILVLLRDNRLDREIGLQLSDDPDSWLPQLDAYLCDLKESQIRDGLHVFGESPSGRLRLDTLLALLRVPRGDGKGANAGLLKSLADDLGLGFDPLACDMGEAWQGARPACLEERGGEPWRTLGDTRERLELLALHWIERCLGGESPPATWRASGEVLRGLCEQVAPTLDACGGAEIDGLLAALEGRFVPAGPSGAPSRGRLDVLPTGRNFFSVDVRNLPTPTAWRIGFQSANLLLERHLQEHGDHLRQLGLSVWGTATMRTGGDDIAQALALLGVRPVWQAGSQRVADFEILPVSLLDRPRVDVTLRVSGFFRDAFANLIRLFDAAVQAVAELDEAEELNPLAARVRLERQRLEAQGTAPAEARRQAGWRIFGAKPGAYGAGVQGAIEERLWETRADLAEVYLNWGGYAYGAADDGTPARERFAQRLERLQAVLHNQDNREHDLLDSNDYYQFQGGMLAAVETLRGAPVASYHGDHSQPDNPRIRTLKEELNRVVRARAVNPKWIAGMKRHGYKGAFELAATVDYLCAFDATSELIDDHQYALLADAYLLDAETREFVRQHNPQALRDMAERLVEAQRRGLWQEPGAYREALENL", "soluble on expression in E. coli": "not soluble"}
{"sequence": "MGAAGDAAIGRESRELMSAANVGRTISRIAHQIIEKTALDDPVGPDAPRVVLLGIPTRGVTLANRLAGNITEYSGIHVGHGALDITLYRDDLMIKPPRPLASTSIPAGGIDDALVILVDDVLYSGRSVRSALDALRDVGRPRAVQLAVLVDRGHRELPLRADYVGKNVPTSRSESVHVRLREHDGRDGVVISRGSHHHHHH", "soluble on expression in E. coli": "soluble"}
{"sequence": "MGSDKIHHHHHHMDRKMNFVMISPHFPANFETFAHRLYENGINTLGIADTPYEQLSQGLRDHLTEYYRVDNMEDYDQVYRAVAYFAHKYGRIDRIESHNEYWLELDAHLRTDFNVFGYKNEDMLSIKTKARMKEIFRKTGIKVARGRVFTSTEDARALTKELGFPVIIKPNSGVGASDTYKIKSAEELEDFFGYQNPTVDYIMEEFIDGDIVTFDGLTDHEGNIVFYSSLEYSEAVLDTVEKDNDMFYYVPRDISPELIKLGEQCVEAFNVKERFFHFEFFRIKKTKDLMALEVNCRPPGGLTIDMWDYANDFDVFNEYAHIVKDNRFEAHITRPYNVVYIARKANKHYAHSIEDIETKFGHHIIEIESVPGIFAKIMGEVGILARTETMNEMRDIICFAHAKI", "soluble on expression in E. coli": "not soluble"}
{"sequence": "MGSDKIHHHHHHRLVEVGKGFSSTSVNTTVFRNNSIVTHGNTQYISYYDAEGWLMLGKRRLGTGEWILHRTQYKGHVKDAHNIISMMVDGDGYLHLSFDHHGHKLNYCRSIAPDTLVLGDKEPMIGNEEEDVTYPEFHLLADGGLLFVYRSGASGRGNMVMNRYDVKSRKWERVQDVLVDGENERNAYWQLYVDQSGTIHLSWVWRETWHVETNHDLCYARSFDGGRTWYKTNGQKYELPIRLGNAEYACRIPQNAELINQTSMSTDAGGHPYIATYWRNPDSDVPQYRIVWHDGVNWHNRQVSERKAPFSLKGGGTKMIPMSRPRMVVDNGEVYYLFRDQERGSKVSMYYTKDIQFGEWHVKDLTDFAVNAWEPSHDTELWKMKKQLHIYVQDTRQGDGEKQVETEPQMVYVLEL", "soluble on expression in E. coli": "not soluble"}
{"sequence": "MEFVVEEGKLVNEDCSTLVLPALSIGNVGQLAVDLLVSSTGAERVGYLDDPNLLPCVGNDAYGPLPCGEIALPLEVYESSSIATTLAQQRSPVAKGMMIKFAENIANFAASSGKKHIIVLSSLDFQRLHNLDMSRGPQVYYLSNAESDGRDDHCERLGFGRLHEYDSEGRCWKYLSSVFEKNSVEELALPSEDELEDIDYYPSLPFAALFSAFKARGLKMTCLLCYCSEGDNIPEAFLLAEASSKLMGLTPDKFHGEEGGKWQIPYSWKSMYGAPPDMSMF", "soluble on expression in E. coli": "soluble"}
{"sequence": "MGSDKIHHHHHHMFEGPIIDARIKSIASGFRAVSVYVDATSAEEGRFDPRLLGEACDCALADGPAWAEAHLASWSDAYAVFGAKPNRTPCSAQALRKRVLKDGTLSTINPIVDLYNAISLKYAVPVGGENFDAYVGRPHLTVADGSETFDTMVNGEAVNDPPLPGEVIWRDDIGVTCRRWNWRQGTRTRLKTLTGRMWFVLEALETMPDDALAEATDAMVGGLNALMPGCKIASQEIAIAG", "soluble on expression in E. coli": "not soluble"}
{"sequence": "MGSDKIHHHHHHMEVLYRKYRPKTFSEVVNQDHVKKAIIGAIQKNSVAHGYIFAGPRGTGKTTLARILAKSLNCENRKGVEPCNSCRACREIDEGTFMDVIELDAASNRGIDEIRRIRDAVGYRPMEGKYKVYIIDEVHMLTKEAFNALLKTLEEPPSHVVFVLATTNLEKVPPTIISRCQVFEFRNIPDELIEKRLQEVAEAEGIEIDREALSFIAKRASGGLRDALTMLEQVWKFSEGKIDLETVHRALGLIPIQVVRDYVNAIFSGDVKRVFTVLDDVYYSGKDYEVLIQEAVEDLVEDLERERGVYQVSANDIVQVSRQLLNLLREIKFAEEKRLVCKVGSAYIATRFSTTNVQENDVREKNDNSNVQQKEEKKETVKAKEEKQEDSEFEKRFKELMEELKEKGDLSIFVALSLSEVQFDGEKVIISFDSSKAMHYELMKKKLPELENIFSRKLGKKVEVELRLMGKEETIEKVSQKILRLFEQEG", "soluble on expression in E. coli": "not soluble"}
{"sequence": "MKFFNREKEINEILLILEEEPNNIYFIYGPLNSGKSTLIREVITNRLDKSKYIPFFIDFRTRNILNVDNFIECLFEVDEKSKIDDFREYAKSLADLLVKGSEEISKYYLGMPIKVPKPFFDRIFSKRDKSADVYQYIEYLFAKLNEKGKKPILIFDELQMIREITLNGNRLLLWSLFQFLVALTKVQHLCHVFCLSSDSLFIEYIYGKAELKGGVDYILVDDFDKKTALKFMDFLAKQKNINLTNEDKELIYSYVGGKAKYIYDVIVKLKAVKDLKYILETKLEEERNHLEELLEKVEEDYEGINYDEVLEALKLFKDNYELPKSKIKRKIRIFLIKENILFLNPQKGTLKPQSYLVWNAIKRML", "soluble on expression in E. coli": "not soluble"}
{"sequence": "MSLMKCLLVSSVEGYSGKSGIIIALGLKLREMGYEVGYFKALGVNTVKVGDRAVEEDSLITAKILGVEEDVCPVVLDRPYIDFATSVDPVVLRKAVLDRFTEVSEGKDVVIVEGSQNYRTGVAVGIDDASVAKMLSAKVLLVGKYVNDFVVDEVLAAKSAFGTMLEKVVFNQVSGYKMSYIEGIARKVLNEAGLDIVGAIPRNPVLAGLSVEEIREAVSGEYLIEPREEKMVEQVVIGAMSPQSALRYLREARNAALVTGGDRSDLLLTALEMPNVRCLILTGNLEPVQLVLTKAEERGVPVILTGHDTLTAVSRLESVFGRTRIRGEPKVGIMRELFESHVNVKTIIEYLGLDEGHHHHHH", "soluble on expression in E. coli": "soluble"}
{"sequence": "MGSDKIHHHHHHMTQLLTKIRRKKIHKGLLLYRLFQQLPVQKNLVLFESFLGRGYSDNPKALYLTLQKQRPELELVWIFAKEPNAAVKAACPNWVLRNSPKYYYLMARAQYWIFNTRQPLSLKKRRETMYLQTWHGTPLKRLGLDMDEVHMPGTNTEQYKKNFSAQAKEWNYLLSPNLYSSAIFKRAFDFRGLLLETGYPRNDLLYAPDRQQQAGQIKQSLRLPPGKKVILYAPTWRDDEFVTKGQYRFNLKLDLKQIQSRLGDDYIVLLRMHYLIAEHLDLTAFDGFAYDVSAYGDIAELYLISDLLITDYSSVFFDYAHLNRPMLFFTYDLEKYASILRGFYFDFEAVVPGPLLKESDQVIDYIEDIATQSKQYEEKYTAFQERFCSLDDGKASQRVVDALFK", "soluble on expression in E. coli": "not soluble"}
